In patent US6916645B2, “Amylases” (Kao Corporation, priority 1998, dated 2005):

B1: K38: purified liquefying alkaline amylase obtained from strain Bacillus sp. KSM-K38 (FERM BP-6946); SEQ ID NO:4 (protein, listed as Bacillus sp.)
chain: MRRWVVAMLAVLFLFPSVVVADGLNGTMMQYYEWHLENDGQHWNRLHDDAAALSDAGITAIWIPPAYKGNSQADVGYGAYDLYDLGEFNQKGTVRTKYGTKAQLERAIGSLKSNDINVYGDVVMNHKMGADFTEAVQAVQVNPTNRWQDISGAYTIDAWTGFDFSGRNNAYSDFKWRWFHFNGVDWDQRYQENHIFRFANTNWNWRVDEENGNYDYLLGSNIDFSHPEVQDELKDWGSWFTDELDLDGYRLDAIKHIPFWYTSDWVRHQRNEADQDLFVVGEYWKDDVGALEFYLDEMNWEMSLFDVPLNYNFYRASQQGGSYDMRNILRGSLVEAHPMHAVTFVDNHDTQPGESLESWVADWFKPLAYATILTREGGYPNVFYGDYYGIPNDNISAKKDMIDELLDARQNYAYGTQHDYFDHWDVVGWTREGSSSRPNSGLATIMSNGPGGSKWMYVGRQNAGQTWTDLTGNNGASVTINGDGWGEFFTNGGSVSVYVNQ
B2: K36: purified liquefying alkaline amylase obtained from strain Bacillus sp. KSM-K36 (FERM BP-6945); SEQ ID NO:2 (protein, listed as Bacillus sp.)
chain: MKRWVVAMLAVLFLFPSVVVADGLNGTMMQYYEWHLENDGQHWNRLHDDAEALSNAGITAIWIPPAYKGNSQADVGYGAYDLYDLGEFNQKGTVRTKYGTKAQLERAIGSLKSNDINVYGDVVMNHKLGADFTEAVQAVQVNPSNRWQDISGVYTIDAWTGFDFPGRNNAYSDFKWRWFHFNGVDWDQRYQENHLFRFANTNWNWRVDEENGNYDYLLGSNIDFSHPEVQEELKDWGSWFTDELDLDGYRLDAIKHIPFWYTSDWVRHQRSEADQDLFVVGEYWKDDVGALEFYLDEMNWEMSLFDVPLNYNFYRASKQGGSYDMRNILRGSLVEAHPIHAVTFVDNHDTQPGESLESWVADWFKPLAYATILTREGGYPNVFYGDYYGIPNDNISAKKDMIDELLDARQNYAYGTQHDYFDHWDIVGWTREGTSSRPNSGLATIMSNGPGGSKWMYVGQQHAGQTWTDLTGNHAASVTINGDGWGEFFTNGGSVSVYVNQ
B3: Duramyl: amylase derived from Bacillus licheniformis, purified from a Novo product in granular form (protein, UniProt P06278 30-512, looked up)
Alpha-amylase: ANLNGTLMQYFEWYMPNDGQHWKRLQNDSAYLAEHGITAVWIPPAYKGTSQADVGYGAYDLYDLGEFHQKGTVRTKYGTKGELQSAIKSLHSRDINVYGDVVINHKGGADATEDVTAVEVDPADRNRVISGEHRIKAWTHFHFPGRGSTYSDFKWHWYHFDGTDWDESRKLNRIYKFQGKAWDWEVSNENGNYDYLMYADIDYDHPDVAAEIKRWGTWYANELQLDGFRLDAVKHIKFSFLRDWVNHVREKTGKEMFTVAEYWQNDLGALENYLNKTNFNHSVFDVPLHYQFHAASTQGGGYDMRKLLNSTVVSKHPLKAVTFVDNHDTQPGQSLESTVQTWFKPLAYAFILTRESGYPQVFYGDMYGTKGDSQREIPALKHKIEPILKARKQYAYGAQHDYFDHHDIVGWTREGDSSVANSGLAALITDGPGGAKRMYVGRQNAGETWHDITGNRSEPVVINSEGWGEFHVNGGSVSIYVQR

Columns and labels:
[1] = Specific activity: amylase activity measuring method and protein assay kit; format: biochemical; conditions: pH 10 glycine sodium hydroxide buffer, 50° C., 15 minutes, soluble starch as substrate
Description: In a test tube, 0.5 mL of the 1% aqueous solution of soluble starch, 0.2 mL of the 250 mM glycine sodium hydroxide buffer (pH 10) and 0.2 mL of deionized water (said mixture will hereinafter be called “substrate solution”) were charged, followed by preliminary heating for about 5 minutes in a water bath of 50° C. After preliminary heating, 0.1 ml of a properly diluted enzyme solution was added to the reaction mixture, followed by reaction at 50° C. for 15 minutes. After completion of the reaction, 1.0 mL of the DNS reagent was added to the reaction mixture, followed by color development by heating in boiling water for 5 minutes. Immediately after that, the solution was allowed to cool down in an ice-water bath. The resulting solution, after cooling, was added with 4.0 mL of deionized water, followed by mixing. The absorbance of the solution at 535 nm was then measured.
In a test tube, 0.9 mL of the substrate solution was charged, followed by the addition of 1.0 mL of the DNS reagent and then with 0.1 mL of an enzyme solution. The resulting mixture was heated in a boiling water for 5 minutes to cause color development. […] The absorbance of the solution at 535 nm was then measured.
In a test tube, 0.9 mL of the substrate solution was charged, followed by the addition of 1.0 mL of the DNS reagent and then with 0.1 mL of each of the glucose solutions for a calibration curve having various concentrations. […] The absorbance of the solution at 535 nm was then measured. On a graph, the glucose concentration (μmol/0.1 mL) was plotted as abscissa and the absorbance as ordinate and the slope of those linear plots was determined by the least square method. A conversion factor (F) was calculated in accordance with the following formula: Conversion Factor (F)=[1/(slope)]×[1/15]×[1000/0.1]
With the amount of the enzyme which formed reducing sugar equivalent to 1 μmol of glucose in one minute was defined as one unit (1U), the titer of the enzyme was calculated in accordance with the following formula: Activity of amylase (U/L)=[δ-absorbance]×[conversion factor (F)]×[dilution ratio] […]

[2] = EDTA or EGTA resisting performance (residual enzyme activity); format: physicochemical; conditions: 0 to 100 mM EDTA or EGTA, pH 10, 30, 40 or 45° C., 30 minutes; FIGS. 1 and 2
Description: (§1) After 9.3 g of EDTA (product of Sigma Chemical Co., Ltd.) was dissolved in about 80 mL of deionized water, the resulting solution was adjusted to pH 8 with an about SN aqueous sodium hydroxide solution by using a pH meter. To the pH-adjusted solution, deionized water was added to give a total volume of 100 mL, whereby a 250 mM EDTA solution was prepared. The resulting solution was diluted with deionized water to prepare 10 to 100 mM EDTA solutions.
as §1, with “9.5” for “9.3”, “EGTA” for “EDTA”, “5N” for “SN”
In a test tube, 0.1 mL of the 10 mM EDTA solution, 0.2 mL of the 250 mM glycine sodium hydroxide buffer (pH 10) and 0.1 mL of deionized water were charged, followed by preliminary heating in a water bath of 45° C. for about 5 minutes. […] Thirty minutes later, a 0.1 mL portion of the resulting solution was added to 0.9 mL of the substrate solution preliminary heated in a water bath of 50° C. and the residual enzyme activity was measured in accordance with the amylase activity measuring method. […]

[3] = Resisting performance against citric acid or zeolite (residual enzyme activity); format: physicochemical; conditions: 0 to 0.5% trisodium citrate or synthetic zeolite A-3, pH 10, 40 or 45° C., 30 minutes; FIGS. 3 to 6
Description: To a 50 mM glycine sodium hydroxide buffer (pH 10) containing trisodium citrate dihydrate (guaranteed class product of Wako Pure Chemical Industries, Ltd.) or synthetic zeolite A-3 (product of Wako Pure Chemical Industries, Ltd.) having each of final concentrations of 0 to 0.5%, a purified enzyme properly diluted with a 10 mM glycine sodium hydroxide buffer (pH 10) was added, followed by treatment at each of predetermined temperatures (40° C. and 45° C.) for 30 minutes. The residual enzyme activity of the reaction mixture was measured in accordance with the amylase activity measuring method [with a 50 mM glycine sodium hydroxide buffer (pH 10)].

[4] = Effects of metal salts (inhibition ratio); format: biochemical; conditions: pH 10, 30° C., 30 minutes; for inhibition ratio by Mn2+: 1 mM Mn2+
Description: Each of them was treated at pH 10 and 30° C. for 30 minutes in the presence of various metal salts, whereby their effects were studied.

Molecule | Specific activity [1] [U/mg] | resisting performance against EDTA or EGTA (residual activity) [2] | resisting performance against citric acid or zeolite (residual activity) [3] | inhibition ratio by Cd2+ (K38 sentence) ([4]; 1 mM Cd2+) | inhibition ratio by Mn2+ [4] | inhibition ratio by Sr2+ ([4]; 1 mM Sr2+)
B1 | 3600 | not influenced by highly concentrated EDTA or EGTA | influenced by neither citric acid nor zeolite | about 30% | about 75% | about 30%
B2 | 4300 | not influenced by highly concentrated EDTA or EGTA | influenced by neither citric acid nor zeolite |  | about 95% | 
B3 | 500 |  |  |  |  | 
